This is an account of results in patent US20180369326A1 (LA JOLLA INSTITUTE FOR ALLERGY AND IMMUNOLOGY, published 2018).

The labels stand for the following.
B1: FLAG-tagged WT TRAF3 (other)
chain: MESSKKMDSPGALQTNPPLKLHTDRSAGTPVFVPEQGGYKEKFVKTVEDKYKCEKCHLVLCSPKQTECGHRFCESCMAALLSSSSPKCTACQESIVKDKVFKDNCCKREILALQIYCRNESRGCAEQLMLGHLLVHLKNDCHFEELPCVRPDCKEKVLRKDLRDHVEKACKYREATCSHCKSQVPMIALQKHEDTDCPCVVVSCPHKCSVQTLLRSELSAHLSECVNAPSTCSFKRYGCVFQGTNQQIKAHEASSAVQHVNLLKEWSNSLEKKVSLLQNESVEKNKSIQSLHNQICSFEIEIERQKEMLRNNESKILHLQRVIDSQAEKLKELDKEIRPFRQNWEEADSMKSSVESLQNRVTELESVDKSAGQVARNTGLLESQLSRHDQMLSVHDIRLADMDLRFQVLETASYNGVLIWKIRDYKRRKQEAVMGKTLSLYSQPFYTGYFGYKMCARVYLNGDGMGKGTHLSLFFVIMRGEYDALLPWPFKQKVTLMLMDQGSSRRHLGDAFKPDPNSSSFKKPTGEMNIASGCPVFVAQTVLENGTYIKDDTIFIKVIVDTSDLPDP
notes: Expressed in HEK293T cells; The position of the FLAG tag is unknown; not shown: FLAG tag
B2: ICOS with alanine-substituted IProx motif (170…179 to 170AAAAAAAAAA179) (receptor)
chain: EINGSANYEMFIFHNGGVQILCKYPDIVQQFKMQLLKGGQILCDLTKTKGSGNTVSIKSLKFCHSQLSNNSVSFFLYNLDHSHANYYFCNLSIFDPPPFKVTLTGGYLHIYESQLCCQLKFWLPIGCAAFVVVCILGCILICWLTKKKYAAAAAAAAAAYMFMRAVNTAKKSRLTDVTL
notes: Expressed from a plasmid in Jurkat JTAg cells; also called mIProx; IProx mutant
B3: TANK-binding kinase 1 (TBK1), endogenous, human cell lines (Jurkat JTAg, HEK293T) (enzyme, UniProt Q9UHD2 1-729, looked up)
chain: MQSTSNHLWLLSDILGQGATANVFRGRHKKTGDLFAIKVFNNISFLRPVDVQMREFEVLKKLNHKNIVKLFAIEEETTTRHKVLIMEFCPCGSLYTVLEEPSNAYGLPESEFLIVLRDVVGGMNHLRENGIVHRDIKPGNIMRVIGEDGQSVYKLTDFGAARELEDDEQFVSLYGTEEYLHPDMYERAVLRKDHQKKYGATVDLWSIGVTFYHAATGSLPFRPFEGPRRNKEVMYKIITGKPSGAISGVQKAENGPIDWSGDMPVSCSLSRGLQVLLTPVLANILEADQEKCWGFDQFFAETSDILHRMVIHVFSLQQMTAHKIYIHSYNTATIFHELVYKQTKIISSNQELIYEGRRLVLEPGRLAQHFPKTTEENPIFVVSREPLNTIGLIYEKISLPKVHPRYDLDGDASMAKAITGVVCYACRIASTLLLYQELMRKGIRWLIELIKDDYNETVHKKTEVVITLDFCIRNIEKTVKVYEKLMKINLEAAELGEISDIHTKLLRLSSSQGTIETSLQDIDSRLSPGGSLADAWAHQEGTHPKDRNVEKLQVLLNCMTEIYYQFKKDKAERRLAYNEEQIHKFDKQKLYYHATKAMTHFTDECVKKYEAFLNKSEEWIRKMLHLRKQLLSLTNQCFDIEEEVSKYQEYTNELQETLPQKMFTASSGIKHTMTPIYPSSNTLVEMTLGMKKLKEEMEGVVKELAENNHILERFGSLTMDGGLRNVDCL
notes: Species follows from the human cell lines; also called endogenous TBK1

Residue numbers refer to the chain shown, from its start.

Experiment [1] deals with WT ICOS (wild-type inducible T-cell costimulator, transfected into Jurkat JTAg T cells) (Homo sapiens (Human)) (UniProt Q9Y6W8). As to the kind of experiment: SILAC mass spectrometry of anti-ICOS IPs from Jurkat cells expressing WT ICOS or mIProx, stimulated with anti-CD3 plus anti-ICOS.
Experiment [2] addresses B3. As to the kind of experiment: anti-FLAG IP and immunoblot, transfected HEK293T cells (FIG. 6e). As to the method:
Shown are representative of three experiments.
(§1) The human leukemic Jurkat T cell line, JTAg, was previously described (Li, J et al. J Immunol 2013, 191(1): 200-207; Rolf J et al., J Immunol 2010, 185(7): 4042-4052) and the HEK 293T cell line was obtained from ATCC. These cell lines have not been recently STR profiled but tested negative for mycoplasma contamination. JTAg cells in logarithmic growth phase were transfected with plasmid DNAs by electroporation and incubated for 24 hours.

Experiment [3] addresses T1, p85α, the regulatory subunit of PI3K, endogenous, Jurkat cells (human, UniProt P27986 2-724).
T1 construct: Species follows from the human cell line; also called p85a
Briefly: co-IP (anti-ICOS IP, immunoblot), transfected Jurkat cells stimulated with anti-CD3 plus anti-ICOS (FIG. 2b, 2c).
Text: IPs or whole cell lysates (WCL) were immunoblotted with the indicated Abs. 5% WCL was used as input to control for IP Western. […] Jurkat T cells transfected with WT ICOS, mIProx, YF or tailless (TL) ICOS plasmids were stimulated with anti-CD3 plus −ICOS mAbs prior to IP and immunoblotting. […] In vitro activated primary mouse CD4⁺ T cells were stimulated with anti-CD3 plus the indicated costimulatory mAbs, and IP or WCL were subjected to immunoblotting with the indicated Abs. Shown are representative of three experiments.
as §1

Experiment [4] addresses T2, WT ICOS (wild-type inducible T-cell costimulator, transfected into Jurkat JTAg T cells) (Homo sapiens (Human), UniProt Q9Y6W8 21-199).
T2 sequence: B2 chain with A150S, A151S, A152S, A153V, A154H, A155D, A156P, A157N, A158G, A159E
As to the kind of experiment: SILAC mass spectrometry of anti-ICOS IPs from Jurkat cells expressing WT ICOS or mIProx, stimulated with anti-CD3 plus anti-ICOS.

T1 sequence (P27986 2-724): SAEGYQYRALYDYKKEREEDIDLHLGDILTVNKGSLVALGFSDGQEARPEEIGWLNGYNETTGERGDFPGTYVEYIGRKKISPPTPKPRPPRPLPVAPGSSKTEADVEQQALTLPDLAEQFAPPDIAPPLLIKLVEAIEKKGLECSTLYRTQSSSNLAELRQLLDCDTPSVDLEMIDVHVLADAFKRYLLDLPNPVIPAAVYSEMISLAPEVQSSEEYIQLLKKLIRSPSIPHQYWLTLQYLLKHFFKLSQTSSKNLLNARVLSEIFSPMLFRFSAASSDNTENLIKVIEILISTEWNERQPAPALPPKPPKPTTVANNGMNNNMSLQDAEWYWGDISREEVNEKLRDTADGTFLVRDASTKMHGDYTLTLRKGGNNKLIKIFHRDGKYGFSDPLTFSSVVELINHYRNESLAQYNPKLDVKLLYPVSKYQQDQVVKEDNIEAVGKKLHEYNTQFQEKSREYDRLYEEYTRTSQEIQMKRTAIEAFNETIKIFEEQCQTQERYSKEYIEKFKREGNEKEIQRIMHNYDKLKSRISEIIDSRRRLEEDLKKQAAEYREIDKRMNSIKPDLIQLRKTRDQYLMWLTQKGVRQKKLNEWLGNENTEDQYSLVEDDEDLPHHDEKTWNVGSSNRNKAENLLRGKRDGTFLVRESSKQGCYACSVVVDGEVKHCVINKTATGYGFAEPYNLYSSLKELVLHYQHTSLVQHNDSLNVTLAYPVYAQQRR

Take “SLP76 (TCR signaling), endogenous, Jurkat cells (from UniProt Q13094 1-533)”: the Fold Change (differential binding ratio, WT ICOS IP vs mIProx ICOS IP) in experiment [1] amounted to 2.08 fold. With “MYCBP2 (E3 ligase), endogenous, Jurkat cells (from UniProt O75592 1-4678) (enzyme)”, in experiment [1], the Fold Change (differential binding ratio, WT ICOS IP vs mIProx ICOS IP) turned out to be 5.26 fold. Consider “NAA10 (acetyltransferase), endogenous, Jurkat cells (from UniProt P41227 1-235) (enzyme)”, for which the Fold Change (differential binding ratio, WT ICOS IP vs mIProx ICOS IP) in experiment [1] came to 2.95 fold. In the case of “GAK (cell cycle kinase), endogenous, Jurkat cells (from UniProt O14976 2-1311) (enzyme)”, the Fold Change (differential binding ratio, WT ICOS IP vs mIProx ICOS IP) in experiment [1] worked out at 2.17 fold. With “Erlin2 (ER protein), endogenous, Jurkat cells (from UniProt O94905 1-339)”, in experiment [1], the Fold Change (differential binding ratio, WT ICOS IP vs mIProx ICOS IP) turned out to be 1.81 fold. “BAG6 (chaperone), endogenous, Jurkat cells (from UniProt P46379 1-1132)”: the Fold Change (differential binding ratio, WT ICOS IP vs mIProx ICOS IP) in experiment [1] came to 3.13 fold. Consider B1, for which the binding result in experiment [2] is on record as “binds”. For the molecule B2, the binding result in experiment [3] was “binds”. Regarding B3, in experiment [4], the “Fold Change (differential binding ratio, WT ICOS IP vs mIProx ICOS IP)” value was 7.69 fold.
